T1: biotinylated human IL-33 (human) (UniProt O95760)
T1 sequence (biotin-labeled with EZ-LINK NHS-PEG4-Biotin, looked up): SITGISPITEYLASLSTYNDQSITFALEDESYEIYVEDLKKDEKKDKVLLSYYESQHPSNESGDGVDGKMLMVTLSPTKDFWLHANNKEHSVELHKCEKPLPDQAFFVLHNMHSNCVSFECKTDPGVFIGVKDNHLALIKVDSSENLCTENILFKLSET

T2: human IL-33 (R&D Systems, #3625-IL-010/CF) (human) (UniProt O95760)
T2 sequence (looked up): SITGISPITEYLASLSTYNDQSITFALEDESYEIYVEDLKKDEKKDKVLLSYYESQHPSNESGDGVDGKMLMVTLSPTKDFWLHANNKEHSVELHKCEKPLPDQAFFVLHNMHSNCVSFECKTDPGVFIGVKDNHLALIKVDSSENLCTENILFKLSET


Key:
[1] = target: T1, biotinylated human IL-33 (human); test: competitive ELISA, biotin-huIL-33 to coated hST2-Fc
[2] = target: T2, human IL-33 (R&D Systems, #3625-IL-010/CF) (human); test: SPR Biacore T200, 37 C
[3] = target: T2, human IL-33 (R&D Systems, #3625-IL-010/CF) (human)
[4] = target: T2, human IL-33 (R&D Systems, #3625-IL-010/CF) (human); remark: listed apart in the source
[5] = target: T2, human IL-33 (R&D Systems, #3625-IL-010/CF) (human); test: SPR Biacore T200, 25 C
[6] = target: T2, human IL-33 (R&D Systems, #3625-IL-010/CF) (human); remark: listed apart in the source
[7] = target: T2, human IL-33 (R&D Systems, #3625-IL-010/CF) (human); remark: listed apart in the source
[8] = target: T2, human IL-33 (R&D Systems, #3625-IL-010/CF) (human); remark: listed apart in the source
[9] = target: T2, human IL-33 (R&D Systems, #3625-IL-010/CF) (human); remark: listed apart in the source
[10] = target: T2, human IL-33 (R&D Systems, #3625-IL-010/CF) (human); test: cell-based or functional assay

Binder | IC50 [1] [nM] | Maximum Blocking [1] [%] | Kd [2] [nM] | koff [2] [s⁻¹] | kon [2] [M⁻¹ s⁻¹] | t1/2 [2] [min] | IC50; IFN-gamma ELISA, primary human NK cells, 260 pM hIL-33 + IL-12 [3] [M] | Ph-p38 MFI at 0.4 nM Ab (500 pM human IL-33, primary basophils) [4] [MFI] | Kd [5] [nM] | koff [5] [s⁻¹] | kon [5] [M⁻¹ s⁻¹] | t1/2 [5] [min] | IC50; SEAP reporter (OD 620), HEK-BLUE IL-33/IL-1beta cells, 10 pM hIL-33 [6] [M] | Ph-p38 MFI at 2 nM Ab (500 pM human IL-33, primary basophils) [7] [MFI] | IC50, IL-33-induced phospho-p38 in primary human basophils, 500 pM hIL-33 [8] [M] | IC50 (read off the curve) [9] [nM] | HEK-BLUE SEAP reporter IC50 [10] [nM] | IFN-γ secretion from primary NK cells, IC50 [10] [nM] | phospho-p38 in primary basophils, IC50 [10] [nM]
H4H9663P (antibody, from another filing, IgG4, V domains shown) VH: QVQLVQSGAEVKKPGASVKVSCKASGYTFTGHYMYWMRQAPGQGLEWMGWINPNSGGTNYAQKFQDRVTMTRDTSISTAYMELSRLRSDDTAVYYCARGRYGSSWYGGFEYWGQGTLVTVSS VL: DIQMTQSPSSVSASVGDRVTITCRASQGITSWLAWYQQKPGKAPNLLIYAAASLQSGVPSRFSGSGSGTDFTLTISSLQPEDFTTYYCQQAYSLPLTFGGGTKVEIK | 0.44 | 82 | 0.517 | 0.00161 | 3.11e+06 | 7 | 4.6e-09 | 123 | 0.558 | 0.000937 | 1.68e+06 | 12 | 1.5e-09 | 80 | – | – | – | – | –
H4H9672P (antibody, from another filing, IgG4, V domains shown) VH: EVQLVESGGGLVQPGGSLRLSCAASGFTLRSYVMYWVRQGPGKGLEGVSGISGSSGGTYYTDSVKGRFTISRDNSKNTLFLQMNSLRAEDTAVYFCARSVYSTTWYGGFQHWGQGTLVTVSS VL: DIQMTQSPSSVSVSVGDRVTITCRASQVISSWLAWYQLKPGKAPKLLIYAASSLQSGVPSRFSGSGSGTDFTLTISGLQPEDFAVYYCQQTNSFPLTFGGGTKVEIK | 0.22 | 77 | 0.531 | 0.00127 | 2.39e+06 | 9 | – | 113 | 0.839 | 0.000806 | 960000 | 14 | 9.8e-10 | 61 | 5.7e-13 | 0.0006 | – | – | –
H4H9662P (antibody, from another filing, IgG4, V domains shown) VH: EVQLVESGGGLVQPGGSLRLSCAASGFTFSSYALTWVRQAPGKGLEWVSFISGSGGRPFYADSVKGRFTISRDNSKNMLYLQMNSLRAEDTAIYYCAKSLYTTSWYGGFDSWGQGTLVTVSS VL: DIQMTQSPSSVSASVGDRVTITCRASQGVVSWLAWYQQKPGKAPKLLIYAASSLQSGVPSRFSGSGSGTDFTLTISSLQPEDFATYYCQQSNSFPFTLGPGTKVDIK | 0.25 | 85 | 0.242 | 0.000566 | 2.34e+06 | 20 | 1.2e-09 | 86 | 0.527 | 0.000459 | 871000 | 25 | 1.5e-10 | 44 | 2.5e-09 | – | – | – | –
H4H9665P (antibody, from another filing, IgG4, V domains shown) VH: EVQLVESGGGLVQPGGSLRLSCAASGFTFSNYAMTWVRQAPGKGLEWVSTISGSGDNTYYADSVQGRFTISRGHSKNTLYLQMNSLRAEDTAVYYCAKPTYSRSWYGAFDFWGQGTMVTVSS VL: DIQMTQSPSSVSASVGDRVTITCRASQGISSWLAWYQQKPGKAPQLLIYAASRLQSGVPSRFWGSGSGTDFTLTISSLQPEDFATYYCQQANNFPFTFGPGTKVDIK | 0.7 | 63 | 1 | 0.00235 | 2.35e+06 | 5 | – | 106 | 1.25 | 0.00116 | 931000 | 10 | 1.1e-09 | 105 | 2.4e-09 | – | – | – | –
H4H9670P (antibody, from another filing, IgG4, V domains shown) VH: EVQLVESGGGLVQPGGSLRLSCAASGFTLSSYAMSWVRQAPGKGLEWVSAISGSGGSTYYADSVKGRFTISRDNSKNSLYLQLNSLRAEDTAVYYCAKTLYTTSWYGGFQHWGQGTLVTVSS VL: DIQMTQSPSSVSASIGDRVTITCRASQGISSWLAWYQQKPGKVPKLLIYAASSLQSGFPSRFSGSGSGTDFTLTISSLQPEDFATYYCQQTHSFPWTVGQGTKVEIK | 0.42 | 80 | 0.519 | 0.000663 | 1.28e+06 | 17 | – | 118 | 0.761 | 0.000517 | 680000 | 22 | 2.6e-09 | 90 | – | – | – | – | –
H4H9675P (antibody, from another filing, IgG4, V domains shown) VH: EVQLVESGGNLEQPGGSLRLSCTASGFTFSRSAMNWVRRAPGKGLEWVSGISGSGGRTYYADSVKGRFTISRDNSKNTLYLQMNSLSAEDTAAYYCAKDSYTTSWYGGMDVWGHGTTVTVSS VL: DIQMTQSPSSVSASVGDRVTITCRASQGIFSWLAWYQQKPGKAPKLLIYAASSLQSGVPSRFSGSGSGTDFTLTISSLQPEDFAIYYCQQANSVPITFGQGTRLEIK | 0.063 | 84 | 0.192 | 0.000779 | 4.06e+06 | 15 | – | 48 | 0.391 | 0.000637 | 1.63e+06 | 18 | – | 30 | 3.5e-13 | – | 0.011 | 0.097 | 0.00038
H4H9664P (antibody, from another filing, IgG4, V domains shown) VH: QVQLVESGGGVVQPGRSLRLSCAASGFTFSSYGLHWVRQSPGKGLEWVALISYDGSNKYYADSVKGRFTISRDNSKNTLYLQMNSLRPEDTAGYFCAKSLYTTSWYGGFDYWGQGTLVTVSS VL: DIQMTQSPSSVSASVGDRVTITCRASQGIRSWLAWYQQKPGKAPNLLIYAASSLQSGVPSRFSGSGSGTDFTLTISSLQPEDFATYYCQQANSFPPTFGPGTKVDIK | 0.19 | 87 | 0.674 | 0.000531 | 789000 | 22 | – | 63 | 1.31 | 0.000445 | 339000 | 26 | 1.5e-10 | 40 | – | – | – | – | 0.00014
H4H9671P (antibody, from another filing, IgG4, V domains shown) VH: EVQLVESGGGLVQPGGSLRLSCAASGFTLRSYFMTWVRQVPGKGLEGVSAISGISGGTYYTDSVKGRFTISRDNSKNTLFLQMNSLRAEDTAVYFCARTVYSSSYYGGFQHWGQGTLVTVSS VL: DIQMTQSPSSVSVSVGDRVTITCRASQGISSWLAWYQQKPGKAPKLLIYVASSLQSGVPSRFSGSGSGTDFTLTISSLQPEDFATYYCQQTNSFPLTFGGGTKVEIK | 0.096 | 77 | 0.552 | 0.00203 | 3.68e+06 | 6 | – | 122 | 0.736 | 0.000963 | 1.31e+06 | 12 | 5.7e-10 | 83 | 2.3e-12 | 0.002 | – | – | –
H4H9666P (antibody, from another filing, IgG4, V domains shown) VH: QVQLVQSGAEVKKPGASVKVSCKASGYTFTSYGISWVRQAPGQGLEWMGWIRAYNGYTNYAQKFQGRVTMTTDTSTNTAYMELRTLNSDDTAVYYCARDRYSGSFHGNFDYWGQGTLVTVSS VL: DIQMTQSPSSVSASVGDRVTITCRASQGIFSWLAWYQQKPGKAPKVLIYAASNLESGVPSRFSGSGSGTDFTLTISSLQPEDFATYYCQQANSLPLTFGGGTKVEIK | 0.21 | 81 | 0.934 | 0.00158 | 1.69e+06 | 7 | 1e-08 | 90 | 1.74 | 0.00115 | 665000 | 10 | 7.1e-10 | 71 | 7.6e-06 | – | – | – | –
